# Source: patent publication US20180127505A1, “HUMANIZED ANTI-AXL ANTIBODIES AND THEIR CONJUGATES” (MEDIMMUNE LIMITED, priority 2015, published 2018)
# T1: AXL on MDA-MB-231 cells (UniProt P30530 26-894, limits assumed)
# T1 sequence (looked up): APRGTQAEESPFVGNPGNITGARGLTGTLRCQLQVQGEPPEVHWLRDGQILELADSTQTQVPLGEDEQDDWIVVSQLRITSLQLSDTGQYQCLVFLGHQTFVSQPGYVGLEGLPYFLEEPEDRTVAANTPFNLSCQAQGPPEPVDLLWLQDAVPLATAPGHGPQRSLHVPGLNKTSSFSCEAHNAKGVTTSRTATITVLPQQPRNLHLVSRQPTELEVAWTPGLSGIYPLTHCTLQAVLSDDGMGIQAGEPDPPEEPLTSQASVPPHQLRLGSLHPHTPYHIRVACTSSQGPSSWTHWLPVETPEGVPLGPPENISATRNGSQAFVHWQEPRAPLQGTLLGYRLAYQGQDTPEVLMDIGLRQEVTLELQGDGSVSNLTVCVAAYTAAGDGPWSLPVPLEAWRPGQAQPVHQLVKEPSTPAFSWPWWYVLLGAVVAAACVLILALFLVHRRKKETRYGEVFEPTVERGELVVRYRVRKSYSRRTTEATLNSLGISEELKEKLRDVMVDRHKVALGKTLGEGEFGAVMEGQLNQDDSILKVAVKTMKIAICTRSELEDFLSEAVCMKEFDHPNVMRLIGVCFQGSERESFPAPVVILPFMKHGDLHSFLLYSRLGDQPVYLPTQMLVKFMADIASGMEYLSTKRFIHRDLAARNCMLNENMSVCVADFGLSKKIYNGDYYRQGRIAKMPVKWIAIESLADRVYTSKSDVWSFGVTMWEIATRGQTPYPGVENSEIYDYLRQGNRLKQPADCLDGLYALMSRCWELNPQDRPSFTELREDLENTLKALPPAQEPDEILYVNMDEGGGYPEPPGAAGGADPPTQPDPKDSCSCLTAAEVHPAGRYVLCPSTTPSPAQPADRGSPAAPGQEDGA
# T2: Human AXL-Strep-His (produced by Evitria AG in transiently transfected CHO cells) (human, UniProt P30530 26-451, limits assumed)
# T2 construct: also called Axl-Strep-His antigen; human AxI-Strep-His; not shown: Strep and His tags
# T2 sequence: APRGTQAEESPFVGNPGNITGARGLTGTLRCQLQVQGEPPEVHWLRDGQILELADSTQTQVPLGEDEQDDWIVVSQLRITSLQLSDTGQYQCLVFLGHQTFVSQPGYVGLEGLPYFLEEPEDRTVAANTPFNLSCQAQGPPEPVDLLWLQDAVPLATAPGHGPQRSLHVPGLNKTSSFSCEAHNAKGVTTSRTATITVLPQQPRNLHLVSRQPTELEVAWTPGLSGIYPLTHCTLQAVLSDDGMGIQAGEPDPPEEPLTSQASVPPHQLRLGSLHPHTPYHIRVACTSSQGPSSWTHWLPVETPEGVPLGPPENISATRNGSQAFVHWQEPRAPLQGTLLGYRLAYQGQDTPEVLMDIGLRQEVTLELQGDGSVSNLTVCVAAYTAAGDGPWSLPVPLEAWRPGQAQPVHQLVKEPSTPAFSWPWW
# T3: Human Axl-Fc chimera (R&D Systems #154-AL) (human, UniProt P30530 26-451)
# T3 construct: Bought reagent; also called Axl-Fc antigen; AXL-Fc chimera antigen; Fc part of the bought chimera not given
# T3 sequence: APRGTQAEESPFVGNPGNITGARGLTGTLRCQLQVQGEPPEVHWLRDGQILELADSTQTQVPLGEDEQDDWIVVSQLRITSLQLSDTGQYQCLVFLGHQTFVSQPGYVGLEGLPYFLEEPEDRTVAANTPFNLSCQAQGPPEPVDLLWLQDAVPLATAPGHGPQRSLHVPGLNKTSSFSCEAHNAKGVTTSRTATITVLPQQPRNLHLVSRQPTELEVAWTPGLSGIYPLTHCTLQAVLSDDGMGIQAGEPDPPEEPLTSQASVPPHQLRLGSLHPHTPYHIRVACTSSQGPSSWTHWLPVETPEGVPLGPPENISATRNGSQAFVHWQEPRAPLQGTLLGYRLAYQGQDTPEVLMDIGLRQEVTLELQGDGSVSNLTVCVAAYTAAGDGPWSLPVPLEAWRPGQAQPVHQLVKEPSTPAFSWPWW
# T4: Cynomolgus monkey AXL (Macaca fascicularis, UniProt A0A2K5WXE0)
# T4 construct: form not described
# T4 sequence (antigen): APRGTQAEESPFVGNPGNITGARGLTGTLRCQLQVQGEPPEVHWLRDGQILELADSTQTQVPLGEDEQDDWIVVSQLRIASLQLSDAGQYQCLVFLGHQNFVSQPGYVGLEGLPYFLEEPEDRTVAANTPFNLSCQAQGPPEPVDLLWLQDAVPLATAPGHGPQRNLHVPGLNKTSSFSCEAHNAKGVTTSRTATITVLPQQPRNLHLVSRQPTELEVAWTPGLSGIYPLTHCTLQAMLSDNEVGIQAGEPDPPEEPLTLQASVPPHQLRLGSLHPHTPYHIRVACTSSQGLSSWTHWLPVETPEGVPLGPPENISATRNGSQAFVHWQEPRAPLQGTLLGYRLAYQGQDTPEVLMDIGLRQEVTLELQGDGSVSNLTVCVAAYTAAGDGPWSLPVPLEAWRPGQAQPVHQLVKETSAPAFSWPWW
# Legend:
# AXL on MDA-MB-231 cells = target: T1, AXL on MDA-MB-231 cells; experiment: cell-based or functional assay
# [1] = target: T2, Human AXL-Strep-His (produced by …); experiment: ELISA on plate-coated human AXL-Strep-His (Protocol 4), OD 450nm against Log10[IgG (µg/mL)] [A. Human Axl]
# [2] = target: T3, Human Axl-Fc chimera (R&D Systems …); experiment: SPR (Biacore T200), AXL-Fc amine-coupled to CM5 chip, antibody as analyte, bivalent model
# [3] = target: T2, Human AXL-Strep-His (produced by …); experiment: human AXL ELISA (Protocol 4), untreated antibody of the accelerated stability analysis, OD 450nm against Log10[IgG (µg/mL)]
# [4] = target: T2, Human AXL-Strep-His (produced by …); experiment: SPR (Biacore T200), AXL-Strep-His amine-coupled to CM5 chip, antibody as analyte, heterogeneous ligand model; column head KD1; heterogeneous ligand model; AXL-Strep-His antigen
# Cynomolgus monkey AXL = target: T4, Cynomolgus monkey AXL; experiment: ELISA on cynomolgus monkey AXL (coating antigen not described in the text), OD 450nm against Log10[IgG (µg/mL)] [B. Cynomolgus monkey AXL]
# [5] = target: T2, Human AXL-Strep-His (produced by …); experiment: SPR (Biacore T200), AXL-Strep-His amine-coupled to CM5 chip, antibody as analyte, heterogeneous ligand model
# [6] = target: T2, Human AXL-Strep-His (produced by …); experiment: SPR (Biacore T200), AXL-Strep-His amine-coupled to CM5 chip, antibody as analyte, bivalent model; column head KD1
# [7] = target: T2, Human AXL-Strep-His (produced by …); experiment: SPR (Biacore T200), AXL-Strep-His amine-coupled to CM5 chip, antibody as analyte, bivalent model
Kd [2] [nM],koff [2] [s⁻¹],kon [2] [M⁻¹ s⁻¹],EC50 (read off the curve) [3] [ng/mL],EC50 (read off the curve) (Cynomolgus monkey AXL) [ng/mL],Binder,"GI50 (pg/ml), MDA-MB-231 cytotoxicity, MTS assay, 5 days (AXL on MDA-MB-231 cells) [pg/mL]",other results
–,–,–,–,–,"Ab1-ConjE (Ab1 conjugated to the ConjE PBD payload, DAR 2.2) (other, ConjE PBD drug-linker on cysteine thiol(s) of the antibody, sites not stated; DAR 2.2) VH: EVQLVESGGDLVKPGGSLKLSCAASGFTFSSYGMSWVRQTPDKRLEWVATISSGGSYTYYPDSVKGRFTISRDNAKNTLYLQMSSLKSEDTAMYYCARHPIYYTYDDTMDYWGQGTSVTVSS VL: ENVLTQSPAIMAASPGEKVTMTCSASSSVSSGNFHWYQQKPGTSPKLWIYRTSNLASGVPARFSGSGSGTSYSLTISSMEAEDAATYYCQQWSGYPWTFGGGTKLEIK",6.95,–
4.6,0.000142,30900,~10,~20,"Ab1, anti-AXL antibody comprising the murine 1H12 VH (SEQ ID NO. 1) and VL (SEQ ID NO. 4) and a constant region derived from one or more human antibodies (antibody, V domains shown, also called Abl; chimeric 1H12) VH: EVQLVESGGDLVKPGGSLKLSCAASGFTFSSYGMSWVRQTPDKRLEWVATISSGGSYTYYPDSVKGRFTISRDNAKNTLYLQMSSLKSEDTAMYYCARHPIYYTYDDTMDYWGQGTSVTVSS VL: ENVLTQSPAIMAASPGEKVTMTCSASSSVSSGNFHWYQQKPGTSPKLWIYRTSNLASGVPARFSGSGSGTSYSLTISSMEAEDAATYYCQQWSGYPWTFGGGTKLEIK",–,EC50 (read off the curve) [1]: ~30 ng/mL; Kd [4]: 40.7 nM; koff [5]: 0.000533 s⁻¹; kon [5]: 13100 M⁻¹ s⁻¹
–,–,–,–,–,"Ab2-ConjE (Ab2 conjugated to the ConjE PBD payload, DAR 2.4) (other, ConjE PBD drug-linker on cysteine thiol(s) of the antibody, sites not stated; DAR 2.4) VH: MGFKMESQFQVFVFVFLWLSGVDGQVQLVESGGGVVQPGRSLRLSCAASGFTFSSYGMSVRQAPGKGLEWVATISSGGSYTYYPDSVKGRFTISRDNSKNTLYLQMNSLRAEDTAVYYCARHPIYYTYDDTMDYWGQGTTVTVSS VL: EIVLTQSPATLSLSPGERATLSCSASSSVSSGNFHWYQQKPGLAPRLLIYRTSNLASGIPDRFSGSGSGTDFTLTISRLEPEDFAVYYCQQWSGYPWTFGPGTKVDIK",73,–
–,–,–,–,–,"Ab5-ConjE (Ab5 conjugated to the ConjE PBD payload, DAR 2.3) (other, ConjE PBD drug-linker on cysteine thiol(s) of the antibody, sites not stated; DAR 2.3) VH: EVQLVESGGGLVQPGGSLRLSCAASGFTFSSYGMSWVRQAPGKGLEWVATISSGGSYTYYPDSVKGRFTISRDNAKNSLYLQMNSLRAEDTAVYYCARHPIYYTYDDTMDYWGQGTLVTVSS VL: EIVLTQSPGTLSLSPGERATLSCSASSSVSSGNFHWYQQKPGLAPRLLIYRTSNLASGIPARFSGSGSGTDFTLTISSLEPEDFAVYYCQQWSGYPWTFGGGTKLEIK",44,–
–,–,–,–,–,"Ab4-ConjE (Ab4 conjugated to the ConjE PBD payload, DAR 2.6) (other, ConjE PBD drug-linker on cysteine thiol(s) of the antibody, sites not stated; DAR 2.6) VH: EVQLVESGGGLVQPGGSLRLSCAASGFTFSSYGMSWVRQAPGKGLEWVATISSGGSYTYYPDSVKGRFTISRDNAKNSLYLQMNSLRAEDTAVYYCARHPIYYTYDDTMDYWGQGTLVTVSS VL: EIVLTQSPATLSLSPGERATLSCSASSSVSSGNFHWYQQKPGLAPRLLIYRTSNLASGIPDRFSGSGSGTDFTLTISRLEPEDFAVYYCQQWSGYPWTFGPGTKVDIK",64.2,–
–,–,–,–,–,"Ab3-ConjE (Ab3 conjugated to the ConjE PBD payload, DAR 2.2) (other, ConjE PBD drug-linker on cysteine thiol(s) of the antibody, sites not stated; DAR 2.2) VH: MGFKMESQFQVFVFVFLWLSGVDGQVQLVESGGGVVQPGRSLRLSCAASGFTFSSYGMSVRQAPGKGLEWVATISSGGSYTYYPDSVKGRFTISRDNSKNTLYLQMNSLRAEDTAVYYCARHPIYYTYDDTMDYWGQGTTVTVSS VL: EIVLTQSPGTLSLSPGERATLSCSASSSVSSGNFHWYQQKPGLAPRLLIYRTSNLASGIPARFSGSGSGTDFTLTISSLEPEDFAVYYCQQWSGYPWTFGGGTKLEIK",27.6,–
1.37,0.000396,290000,~20,~20,"Ab4, anti-AXL antibody comprising VH SEQ ID NO. 3 and VL SEQ ID NO. 5 and a constant region derived from one or more human antibodies (antibody, V domains shown) VH: EVQLVESGGGLVQPGGSLRLSCAASGFTFSSYGMSWVRQAPGKGLEWVATISSGGSYTYYPDSVKGRFTISRDNAKNSLYLQMNSLRAEDTAVYYCARHPIYYTYDDTMDYWGQGTLVTVSS VL: EIVLTQSPATLSLSPGERATLSCSASSSVSSGNFHWYQQKPGLAPRLLIYRTSNLASGIPDRFSGSGSGTDFTLTISRLEPEDFAVYYCQQWSGYPWTFGPGTKVDIK",–,EC50 (read off the curve) [1]: ~30 ng/mL; Kd [6]: 60.4 nM; koff [7]: 0.00059 s⁻¹; kon [7]: 9760 M⁻¹ s⁻¹
7.69,0.000159,20600,~20,~30,"Ab5, anti-AXL antibody comprising VH SEQ ID NO. 3 and VL SEQ ID NO. 7 and a constant region derived from one or more human antibodies (antibody, V domains shown) VH: EVQLVESGGGLVQPGGSLRLSCAASGFTFSSYGMSWVRQAPGKGLEWVATISSGGSYTYYPDSVKGRFTISRDNAKNSLYLQMNSLRAEDTAVYYCARHPIYYTYDDTMDYWGQGTLVTVSS VL: EIVLTQSPGTLSLSPGERATLSCSASSSVSSGNFHWYQQKPGLAPRLLIYRTSNLASGIPARFSGSGSGTDFTLTISSLEPEDFAVYYCQQWSGYPWTFGGGTKLEIK",–,Kd [6]: 23 nM; koff [7]: 0.000435 s⁻¹; kon [7]: 18900 M⁻¹ s⁻¹
